Assay results taken from the supplement of paper PMC9732359.
± gives the uncertainty stated by the source.

Test: protein stability index of a GFP-peptide fusion (yeast GPS) (PSI 1-4); higher = more stable; sorted into four equal gates, so the index is relative within each strain
Outline: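 Tiled 17-residue yeast protein peptides were fused downstream of GFP in a plasmid that also expresses Cherry, and the pooled library was carried in yeast. Mid-log cultures in leucine-free medium were sorted into four equal gates by GFP/Cherry fluorescence ratio, and plasmids from each gate were PCR-amplified and Illumina-sequenced, with reads assigned to strains by barcodes. The protein stability index for each peptide was each gate's read frequency times its gate number, summed.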

Row | Sequence | protein stability index (doa10∆) | protein stability index (pdr5∆) | protein stability index (san1∆) | protein stability index (ubr1∆)
1 | IQGISKMYSDDTLKDIS [BRN1] | 3.24 ± 0.17 | 3.35 ± 0.15 | 3.37 ± 0.15 | 3.05 ± 0.17
2 | KTTDHLFDAAFYMKKDA [RPO31] | 3 ± 0.075 | 3.21 ± 0.071 | 3.21 ± 0.05 | 3.05 ± 0.054
3 | ENNYKKRLLGTAFKSSP [RPS23A] | 2.32 ± 0.047 | 2.6 ± 0.049 | 2.22 ± 0.062 | 2.44 ± 0.036
4 | VHRDDPALVGKLRGDLR [SNF6] | 3.36 ± 0.083 | 3.2 ± 0.088 | 2.7 ± 0.092 | 2.88 ± 0.071
5 | KSGTSHDAIFSIYKYIH [SNF12] | 2.51 ± 0.059 | 2.66 ± 0.054 | 2.34 ± 0.068 | 2.2 ± 0.046
6 | SAHQSPIMQTQMPLNSN [SNF2] | 2.94 ± 0.11 | 2.37 ± 0.091 | 2.54 ± 0.075 | 2.17 ± 0.053
7 | RAAKLAAPENEKPAPVR [RPS15] | 3.21 ± 0.1 | 3.15 ± 0.11 | 2.89 ± 0.073 | 3.36 ± 0.082
8 | NTLYTAIITDDLDTVLK [SRP72] | 2.19 ± 0.039 | 2.5 ± 0.031 | 2.44 ± 0.041 | 2.6 ± 0.035
9 | AVFYTPKELGGLGMISA [PRP8] | 3.43 ± 0.13 | 2.33 ± 0.13 | 2.4 ± 0.1 | 2.29 ± 0.24
10 | GNIFADLLPNSFAKLVP [SMC2] | 2.36 ± 0.045 | 2.86 ± 0.04 | 2.58 ± 0.05 | 2.62 ± 0.043
11 | TADKIRIHAKNFEAALF [GAL11] | 2.13 ± 0.068 | 2.05 ± 0.065 | 1.51 ± 0.11 | 2.29 ± 0.055
12 | QLESYEYMVQYIDEMYN [RRI1] | 2.74 ± 0.052 | 2.89 ± 0.075 | 3.27 ± 0.14 | 2.42 ± 0.071
13 | DDVRDFVIRREVTKGEK [RPS6A] | 3.37 ± 0.14 | 3.4 ± 0.094 | 3.08 ± 0.14 | 3.62 ± 0.18
14 | LESEAQKKATMSAEEAL [RPC34] | 3.13 ± 0.096 | 3.26 ± 0.14 | 3.04 ± 0.092 | 3.58 ± 0.12
15 | FVPNDGCLNFVDENDEV [RPS23A] | 2.94 ± 0.063 | 3.04 ± 0.071 | 2.78 ± 0.05 | 2.65 ± 0.055
16 | VKKVQLGKKGVPYVVTH [RPS4A] | 1.77 ± 0.098 | 2.07 ± 0.13 | 3.06 ± 0.064 | 2.04 ± 0.071
17 | QEFFFHAMGGREGLIDT [RPO21] | 2.54 ± 0.081 | 2.17 ± 0.08 | 2.39 ± 0.087 | 2.08 ± 0.063
18 | GLRTENVLDYFAESPFF [MED6] | 3.35 ± 0.12 | 3.25 ± 0.18 | 2.94 ± 0.077 | 2.83 ± 0.047
19 | SMINNSNQAVGQTWNFP [SRB8] | 2.8 ± 0.17 | 3.01 ± 0.16 | 3.15 ± 0.13 | 2.74 ± 0.12
20 | IVIDVDYNKKQDRIQDV [MED1] | 3.16 ± 0.15 | 3.13 ± 0.091 | 2.99 ± 0.094 | 3.09 ± 0.077
21 | GTGKPEAIHDMFTYSQE [RPN2] | 2.8 ± 0.16 | – | 3.12 ± 0.071 | 2.72 ± 0.11
22 | VYYSKRGFKVGLVCADT [SRP54] | 2.41 ± 0.12 | 2.29 ± 0.073 | 2.19 ± 0.098 | 2.5 ± 0.054
23 | RHHRKTEKEEDAELMAD [ISW2] | 3.5 ± 0.13 | 3.31 ± 0.11 | 3.15 ± 0.091 | 3.32 ± 0.089
24 | ASELANPYSSYVSQIRK [YAR002W/NUP60] | 3.22 ± 0.17 | 2.9 ± 0.13 | 2.31 ± 0.17 | 1.92 ± 0.073
25 | QFQRLAPSLTVPPIASP [PRE2] | 2.14 ± 0.053 | 2.03 ± 0.049 | 1.85 ± 0.055 | 2.15 ± 0.038
26 | CLSDYTKKISNFNSSLH [YJL039C/NUP192] | 1.56 ± 0.061 | 2.04 ± 0.057 | 1.72 ± 0.083 | 1.25 ± 0.036

Row | Sequence | protein stability index (doa10∆) | protein stability index (pdr5∆) | protein stability index (san1∆) | protein stability index (ubr1∆)
27 | KDHLLLEEEFVSNSEIL [RPT2] | 2.87 ± 0.09 | 2.83 ± 0.065 | 2.83 ± 0.066 | 2.74 ± 0.078
28 | KRTRLESLKNLNESRSQ [SMC3] | 2.53 ± 0.092 | 2.4 ± 0.075 | 2.61 ± 0.071 | 2.82 ± 0.13
29 | NSWFDVTWRTFTGDFLR [FAS1] | 2.75 ± 0.11 | 1.93 ± 0.093 | 1.98 ± 0.12 | 2.61 ± 0.069
30 | GLLSQAIGCIERSDLLP [YJR042W/NUP85] | 2.37 ± 0.07 | 2.37 ± 0.064 | 2.43 ± 0.09 | 2.51 ± 0.069
31 | LGAIEQILIFAADTSIV [YJL039C/NUP192] | 1.47 ± 0.09 | 2.02 ± 0.049 | 1.72 ± 0.091 | 2.56 ± 0.099
32 | LVTKILPLKKNEIIGDR [YCG1] | 2.88 ± 0.22 | 2.9 ± 0.18 | 2.6 ± 0.24 | 2.83 ± 0.27
33 | VSDSEIIDLNLHSFTKQ [POP6] | 2.72 ± 0.061 | 2.85 ± 0.062 | 2.41 ± 0.061 | 2.73 ± 0.044
34 | DDEKNDKQARKQRTKKE [SNF2] | 3.35 ± 0.3 | 3.53 ± 0.11 | 3.06 ± 0.088 | 3.18 ± 0.1
35 | ATVPSAPYRKQIISNAH [YAR002W/NUP60] | 2.34 ± 0.062 | 2.41 ± 0.069 | 1.88 ± 0.093 | 2.37 ± 0.06
36 | RYSMSEQFPFYLHDNAS [IRR1] | 3.02 ± 0.09 | 3.01 ± 0.06 | 2.97 ± 0.063 | 3.03 ± 0.042
37 | EVRAISVAKIRFPETMD [RPO21] | 3.08 ± 0.1 | 2.87 ± 0.087 | 2.73 ± 0.079 | 3.28 ± 0.044
38 | HQNESSAASIPPQQTYH [RPN4] | 2.57 ± 0.054 | 2.89 ± 0.074 | 2.53 ± 0.066 | 2.69 ± 0.057
39 | RPNRRGPRNTEEKGWVP [RPS2] | 3.42 ± 0.15 | 3.49 ± 0.13 | 3.68 ± 0.12 | 3.66 ± 0.079
40 | TKIGAKRIHSVRTRGGN [RPS8A] | 2.84 ± 0.15 | 3.05 ± 0.11 | 2.93 ± 0.088 | 2.72 ± 0.12
41 | LDKLNCAINSKSRGSDL [RRP6] | 2.81 ± 0.049 | 2.93 ± 0.042 | 2.79 ± 0.042 | 2.94 ± 0.032
42 | ELVVFLPALCKKMGVPY [RPL8A] | 2.92 ± 0.098 | 2.83 ± 0.11 | 2.78 ± 0.14 | 3 ± 0.061
43 | LKLSQAFGSSATDISGE [YJR042W/NUP85] | 2.76 ± 0.065 | 2.05 ± 0.067 | 2.56 ± 0.059 | 2.14 ± 0.048
44 | SGDSGVYTLACRSCPYE [RPC11] | 1.28 ± 0.13 | 2.01 ± 0.18 | – | 1.26 ± 0.15
45 | EDCVEEFFHLQHYLDTA [QCR6] | 3.21 ± 0.085 | 3.4 ± 0.081 | 3.13 ± 0.063 | 3.31 ± 0.068
46 | EFDSDDDDISDDEEDEI [RPN4] | 3.47 ± 0.1 | 3.28 ± 0.09 | 3.14 ± 0.082 | 3.31 ± 0.098
47 | QIQFTPLIKKIKYEPRF [SMC3] | 2.62 ± 0.061 | 2.52 ± 0.045 | 2.83 ± 0.09 | 2.43 ± 0.062
48 | TGNGTTTTSNTSGTNIA [YOR098C/NUP1] | 2.96 ± 0.045 | 2.69 ± 0.047 | 2.46 ± 0.056 | 2.41 ± 0.035
49 | NGTLIGCVSYSPAALKQ [YMR153W/NUP53] | 1.85 ± 0.06 | 2.27 ± 0.086 | 1.83 ± 0.097 | 2.26 ± 0.045
50 | VIRIPMQENDKINQERL [CSI1] | 2.42 ± 0.083 | 2.83 ± 0.085 | 2.37 ± 0.11 | 2.82 ± 0.072
51 | SSSNGGGSAKPSLKFKP [RPC53] | 2.61 ± 0.13 | 3 ± 0.14 | 2.74 ± 0.093 | 3.34 ± 0.091
52 | QPVNPKPFLKGLVNHRV [SMX3] | 3.07 ± 0.054 | 3.09 ± 0.057 | 3.16 ± 0.041 | 3.06 ± 0.055
